# Target: T1, 重组cTnI抗原 (UniProt P19429 1-210, limits assumed)
# T1 construct: Both are treated here as the same coating of the same experiment
# Experiment: indirect ELISA, recombinant cTnI coated, enzyme-labelled secondary antibody
# T1 sequence (P19429 whole entry): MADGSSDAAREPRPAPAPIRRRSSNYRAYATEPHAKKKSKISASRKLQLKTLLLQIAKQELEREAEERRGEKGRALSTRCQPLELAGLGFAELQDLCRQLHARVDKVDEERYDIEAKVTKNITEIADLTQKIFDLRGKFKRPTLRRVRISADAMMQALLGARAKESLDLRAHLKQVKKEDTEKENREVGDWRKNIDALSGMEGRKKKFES
binder,measurement,value
"cTnI抗体突变4 (antibody, V domains shown, Mutant of a mouse anti-cTnI monoclonal antibody, made recombinantly by transient expression and purified on SPA; also called 突变抗体4) VH: EVQLVESGGDLVTPGGSLKLSCTASGFTFSNYAMSWVRQTPEKRLEWVATISSGGTYTFYPDSVKGRFTISRDNAKNTLYLQMSSLRSEDTAIYYCTAAGAFDGEKALDYWGQGTSVTVSS VL: DIQMNQSTSSLSASLGDRVTISCRASQDISSYLNWYQQRADGTIKLLIYFTSRLHSGVPSRFSGSGSGTDYSLTISNLEQEDIATYFCQQGNTVAATFGGGTRLEIK",binding result,no binding (tested: 检测值小于0.05基本可判定无活性 (阴性对照0.047左右))
